Data published in patent US20210369812A1, “OSTEOINDUCTIVE PEPTIDES, COMPOSITIONS, IMPLANTS, AND METHODS OF USE” (The Board of Regents of the University of Oklahoma, priority 2018, published 2021).
Entries after “also recorded” stand apart in the source; their conditions may differ.

Columns and labels:
BMPR2 = molecular target: T1, BMPR2 (Homo sapiens, UniProt Q13873); assay: Biopanning of Ph.D.-12 phage library on immobilized BMPR2-Fc; format: binding; details: peptide displayed on p3 of M13 phage; 3 rounds of panning
T1 construct: purchased G&P Biosciences
T1 sequence (Q13873 27-150 limits assumed): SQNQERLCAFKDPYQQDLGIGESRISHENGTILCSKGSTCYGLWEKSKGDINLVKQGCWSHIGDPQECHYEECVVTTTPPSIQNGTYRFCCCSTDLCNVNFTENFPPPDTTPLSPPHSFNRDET
Procedure: (§1) The Ph.D.™-12 phage library was diluted in tris-buffered saline mixed with Tween-20 (TBS+0.1% v/v Tween-20 and abbreviated TBST) for a final concentration of 2×10^11 phage in 1 mL of TBST. The diluted library was then pipetted onto one of the wells of a 12-well poly-L-lysine plate followed by rocking the plate gently for 60 minutes at room temperature. […] This supernatant served as the starting phage library for subsequent binding selections. The phages which stuck to the plate were discarded.
(§2) This procedure is only applicable if the charge of the desired protein to be immobilized is negative, determined by checking the pI value of the protein. […]. This procedure was written for 12-well plates coated in poly-L-lysine (positively charged). Separate solutions of BMPR1A-Fc and BMPR2-Fc were prepared at 80 μg/ml in Tris-buffered saline (pH 7.5). In separate wells and on separate poly-L-lysine coated 12-well plates, 0.3 ml of each solution of receptor was added. The solutions of BMPR1A-Fc and BMPR2-Fc were swirled around the plate surface until the entire surface was wet. The plates were then incubated overnight at 4° C. with gentle agitation in a humidified container (a sealed plastic box with damp paper towels). Each individual receptor was now immobilized.
(§3) The following selection procedure is based off of the direct coating procedure outlined in the Ph.D.™-12 Phage Display Libraries instructional manual (New England Biolabs) with some alterations. This procedure was carried out after immobilizing the targets BMPR1A-Fc and BMPR2-Fc in a 12-well poly-L-lysine coated plate. A stock solution of tetracycline was prepared (20 mg/ml in 1:1 ethanol:water). The coating solution containing the target receptors was poured off followed by firmly slapping the plates face down on a clean paper towel. Each well was then filled with blocking buffer (0.1 M NaHCO3 (pH 8.6), 5 mg/mL BSA, 0.02% NaN3. Filter sterilize, store at 4° C.) and incubated for 1 hour at 4° C. The blocking solution was then poured off followed by firmly slapping the plates down against a clean paper towel. Each plate was washed rapidly 6 times with Tris-buffered saline mixed with Tween-20 (TBS+0.1% v/v Tween-20). The plate was slapped against a clean paper towel each time. 1 ml of the phage library created from the negative selection process was then pipetted onto each of the target coated wells. The plates were then rocked gently at room temperature for 60 min. The non-binding phages were then discarded by pouring off the supernatant and slapping the plate face-down on a clean paper towel. The plate was then washed 10 times with TBST followed by slapping the plate face-down on a clean paper towel each time (a clean section of paper towel was used each time to prevent cross-contamination). The bound phages were then eluted by incubating with a nonspecific disruption buffer (0.2 M Glycine-HCl (pH 2.2), 1 mg/ml bovine serum albumin (BSA) for 15 minutes. The eluate (immersed in the disruption buffer) was then pipetted into a microcentrifuge tube followed by neutralization with 150 μl of 1 M Tris-HCl (pH 9.1). A small portion (˜1 μl) of this eluate could be titered and sequenced if desired. The rest of the eluate was amplified (see amplification of phage library section). Once amplified, the eluate was also titered. Determine the concentration of amplified phages by counting the blue plaques in titering as described. Dilute the amplified library to contain 2×10^11 phages in 1 mL of TBS (as little as 10^9 plaque forming units per ml can be used if there is not enough). A second poly-L-lysine 12-well plate was then coated with the target receptors to allow for a second round of biopanning carried out using the same steps except that the Tween-20 concentration in the wash steps was raised to 0.5% (v/v). The eluate from the second round was then amplified, titered and used in an additional 3rd round of panning on newly receptor coated plates. […]

[1] = tested on: human mesenchymal stem cells (hMSCs); assay: Live cell binding through immunofluorescence; format: cell-based; details: 10^12 phages/ml
Procedure: Human mesenchymal stem cells (hMSCs) were grown to roughly 60% plate coverage in a 48-well tissue culture plate according to the company Lonza's culturing protocols. […] The hMSCs were then blocked with 0.5% BSA (dissolved in cell media) for 1 hour. The cell media for the hMSCs was then replaced with 1 ml of new cell media having of concentration of 10^12 phages/ml. Next, the plates were washed once with 400 μl of phosphate buffered saline (PBS) at a pH of 7.4. The hMSCs were then incubated with Anti-M13 Bacteriophage Coat Protein g8p antibody [RL-ph2] (ab9225) at a 1:1000 dilution in cell media (200 μl per well). The wells were then washed again with PBS (400 μl per wash). Next, the hMSCs were incubated with the secondary antibody, Goat-anti mouse AF-488 (Abcam) for 1 hour (1 ug/ml final concentration of antibody in media). The wells were then washed again with PBS (400 μl per wash). A Hoechst nuclear stain was used to stain the nuclei (PureBlu™ Hoechst 33342 Nuclear Staining Dye #1351304 from BioRad) according to the company's protocol. Cell Mask™ Orange Plasma Membrane Stain was used to stain membranes (CellMask™ Orange Plasma Membrane Stain Catalog number: C10045 from Thermo Fisher Scientific) according to the company's protocol. The phages binding to the cells were then imaged on a Nikon Eclipse Ti fluorescent microscope.

hMSCs = assay: qPCR of osteoblast marker genes; format: cell-based, human; details: 26 days on phage films; normalized to GAPDH; relative to negative control (basal media)
Procedure: Gene expression was normalized to the reference gene, GAPDH. All fold changes are relative to a negative control (basal media with no peptides or phage) which represents the baseline at zero-fold change. […] All data represent the mean±standard deviation. (*P≤0.05, **P≤0.01, ***P≤0.001).
hMSCs were seeded (1×10^3 cells per culture plate) on to phage films as well as relevant control plates. The cells were then cultured for 26 days. The cells then were processed with a Power SYBR™ Green Cells-to-CT™ Kit. The number of cells was adjusted to be 5×10^3 cells per lysis reaction. All other parameters were kept the same as the manufacturer's protocol for this kit. The gene expression of osteopontin, osteocalcin, and collagen type 1A were measured as a fold change normalized to the reference gene GAPDH and a negative control (basal media+ cells but no phage) such that the baseline at zero-fold change represents the negative control. For temperature cycling and measuring CT values, a MiniOpticon Real Time PCR System was used.

BMPR1A = molecular target: T2, BMPR1A (Homo sapiens, UniProt P36894); assay: Biopanning of Ph.D.-12 phage library on immobilized BMPR1A-Fc; format: binding; details: peptide displayed on p3 of M13 phage; 3 rounds of panning
T2 construct: purchased G&P Biosciences
Procedure: as §1, §2, §3

T2 sequence (P36894 24-152 limits assumed): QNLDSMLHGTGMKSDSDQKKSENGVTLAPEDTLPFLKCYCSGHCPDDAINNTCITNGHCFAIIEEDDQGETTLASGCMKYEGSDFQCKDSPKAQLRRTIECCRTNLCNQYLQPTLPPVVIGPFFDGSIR

Sequence	Binding to BMPR2 found by biopanning (frequency among sequenced plaques) (BMPR2)	Binding of peptide-bearing phages to live hMSCs [1]	Osteopontin gene expression, fold change (hMSCs)	Binding to BMPR1A found by biopanning (frequency among sequenced plaques) (BMPR1A)
SGTQDSMVGWNK (Completely synthesized in the lab - Ph.D.-12 Phage Display Peptide Library Kit (New England Biolabs))	showed up as a result of biopanning on both BMPR1A alone and BMPR2 alone; also recorded: discovered to bind	bound to what appeared to be the same location as the outer membrane; also recorded: demonstrated an ability to bind to the outer membrane	greater osteopontin production than the wild type, but not greater than the Lonza osteogenic media; also recorded: statistically significant advantage over the wild type phage films	showed up as a result of biopanning on both BMPR1A alone and BMPR2 alone; also recorded: discovered to bind
VHVPLHRGAVSA (Completely synthesized in the lab - Ph.D.-12 Phage Display Peptide Library Kit (New England Biolabs))	discovered to bind	bound to what appeared to be the same location as the outer membrane; also recorded: demonstrated an ability to bind to the outer membrane	greater osteopontin production than the Lonza osteogenic media; also recorded: statistically significant advantage over the wild type phage films; also recorded: statistically significant advantage over the positive control	discovered to bind
